Assay results reported in the DeepSol protein solubility set.

Test: soluble on expression in E. coli; label from the status in PepcDB or PDB records

Sequence | soluble on expression in E. coli
MGSDKIHHHHHHMTKKITTHLESGLFKGKPRQKTVQHRNATTTPEMRQFIQQSDYSVSQLSKILNISEATVRKWRKRDSIDNTPNTPHKLNTTLSPMEEYVMLGLRYQLKMPLDRLLKVTQEFINPNVSRSGLARCLKRFGVSKLDEFDSPFVPEKFFNQLPITQGADIQTYTVNPKTLADTLSLPSPDPDNVVQVVSLSIPPQLTKQQAYSVLLGVDFKSDWVYLDIYQDSHTQASNRYITHVLKHGPFHLRKLLVRNYHTFLARFPGASQPAAVSTSTIDAAGSQHQITEPQLSNGDSYEPIQ | not soluble
MGSDKIHHHHHHMTLLIVGATGTLGRQVARRAIDEGYKVRCLVRSPKRAAFLKEWGAELVRGDLCQPQTLAEALEGVTAVIDAATSRATDSLTIKQVDWEGQIALIQAAKAASVERFIFFSIIDADKYPEVPLMEIKRCTELFLAESGINYTVLRLAGFMQGLIGQYGIPILEGQPVWVTGASSPVAYMDTLDIAKFAVRALSVPETEKQAFPVVGTRAWSAEEIINLCERLSGKEAKVRRMPINLLRAVRGLAKFFQWGWNIADRLAFTEVLASGRPLNASMDEVYTVFGLEKEQSTTLESYLQEYFSRILKKLKQLDYEKTKTKKQKDKKTPFKKVNS | not soluble
MGSDKIHHHHHHMTLSSSFAQLKDFKFKFYGQIRTDFYYNSRANEETVDGLFYMYPKDEVLDGNGEDLNATSNSNFYTLYSRLGLDVAGPKLGTAKTSAKVEVDFRGSGTSYSTIRLRHAYFNLDWGKSAVLVGQTWHPLFGDVSPQILNLSVGAPFQPFSRAPQIRYRFNNKHLQLTGALVWQSQYLSQGPAGKSQEYIKKSNIPEIYVGADYKNGGFLAGAGIEMISLKPRTQSSWEEKTFDPTTNSTISIPHTYKVDERITTLSYEAHVKYTNKNWFIGAKSVLGSNLTQASGLGGFGIKHIDNKTKEQEYTPIRFSSSWLNVVYGQKWKPGIFVGYAKNLGTSDELVSEKLYGTGTNLDKLVTAGAELTYNVPHWKFGVEYTLSSAWYGKLDKSDGKIIDTHSVSNNRIVAVAMFMF | not soluble
MGSDKIHHHHHHMTMPVPHAGPTPLCSNRMQVHSITQETPDVWTISLVNHDFYPYQPGQYALVSIANSEETLRAYTISSSPGLSRFITLTVRRLDDGVGSRWLTQTLKIGDYLWLSDAQGEFTCANAVSDRYLMAAAGCGVTPIMSMCRWLLANKPQIDIHIIFNVRNPQQVIFASEWQDLVQRYPQQLHLTLMAEFDAAPGFLAGRISGDLLVERVPDITNRTVMTCGPAPYMNQIETLSQQLGVASNRIFKEQFRPTDEVVDEDADQITLTISRPLKNLRVPVGISLLAALEANKVHVLAACRAGVCGSCKTRVLSGKYTTTSTMTLTPAEIEQGYVLACSCQLQGDTVLA | not soluble
MGSDKIHHHHHHMTNENELLYSSELQLSALNEAIEATPDNPYLYFKRATYFYNINNFRIAQNDIQKALRMDESVAAYWLLSAQINNELKNVDRAIEEGQKALQLGNAEPILYALLANCLLEKNDTISANQYIGKLTAIAPQMAELKYVQAKKLLIGKDTSHSFLKFRECIQNNPQYIEAYIDLMSLYYKKQMYDSIMPLLIKAKRMRPNNPTLFLYEGKFYETINKNQVALAAYKEGLLCDPQAIELYKPLSDYYGRQGNYKESMYYLSKWIEKNSSDAQSIIKMGNYALKQNDEAGAVTYYKNSLSIDSSNTYLKKEIERIEKHIRYVAQDTTN | not soluble
MGSDKIHHHHHHMTNLNYCRPLSLTTNRCLMNKELETLILSAVDLPTIPLVATKVIEMIEQEDVTIEKIAQTVSADPAVAARILKLSNSAYYGCQRQINTLSGAIMLLGFRTLKSLVVAASLKQICKRFGLTEKMLWEHAVGAAIAARIISANGKFINEETAFLAGLFHDIGKTIMNDLDPSKFQQVMMRCYNEGLPFEEVERSIYSFSHAEVGALVIRKWNFPEALSTAVMNHHDFPNPTLTDQYDLFLTATTCLADKFCKKLGIGERHPDEELDLAKTQEAHLLGYTPETILRDVDQFAQTFEENKSFFIND | not soluble
MGSDKIHHHHHHMTQLANTKFSLNDFELRDGIYFPSDYEQLNNTQHKKTWDAIGKTYYGSQKIEKLADTSPIKQDYTLLTGTPGGTWNKFPLNKSVGSILEIGSGYGRAPLHLSKAKNLRCEKYYGIDISEPLLRRLIKVKQEYNFFPEAEFNLICTSAEILPLEDNSIDLVISNCVFMHIPDAQLRSLLADISRVLKPGGIFVFNHSFHNKSCPSHIIHNFVRKLNPFVRNPVYLKQYSSAEINEMLASAGIQTKCPQYIVEPTEEYAILPETIKGIPVPFAKAINRSLKPSDALKETLAYGFSAYSSQLD | not soluble
MGSDKIHHHHHHMTQTPVTLDQKVGEKRDRMRGVFSTQEIRKVGTGTTTRKTIQKSFWYVDEGDDGVIEVQPLNSNYVPSGPKRKIDRDELLDKFAPEPEFYVQTVFPKMRELNKTIARADRHRQKGETFSAEFEYNNALKVDEENVRANFGIGLTYLERGETDKADNIFERLVKLDAAFEEEHKHLFNEFGINLRKSKMYDQAVEYYGRALELSQGDENLHLNVARAYLEKQDFPHCLEHVLRALMINPAHEAGLKFLAWMEAKKLVPEDQRAAVAEAVARARSTGGTPASAANEG | not soluble
MGSDKIHHHHHHMTQVDILILSNGPGEVTTWVRPVVRALRQQFGDDRNQVRISVVLSPCSNASGKEAAIALSYPEVDRVQAAEHFWQFLLWGKTIDNWDWRSRGVVVFLGGDQIFPVVIGKKLGYRTVVYAEWEARWHNWIDRFGVMKPEVAARAPHKYAHKFTVVGDLMVEANSHSSLVIGDLSNDKELMTNDIDASTTSHSVGQKTELIGLLPGSKAAKLAQGVPLCLSIAEYVHAKRPQTKFVIPVAPTLDLQTLASFADPQRNSIAEIFGFGGAALIVPEDDRDKALLKTAKGVTVELWQENPAYHLLSQCCICLTTVGANTAELGALGVPMIVLLPTQQLDAMRAWDGLPGLLANLPGVGTPFANTINWLFLRFVRRKGLLAWPNIWAQEEIVPELMGKLQPPEIGEMVVELLAHPEKLADIRAKLRNIRGESGAALKIAQIVCEEMGK | not soluble
MGSDKIHHHHHHMTRKQFETLDLDNLEQNLQQAAELIAGRIRAIACDPVKQNISFEELAAIIPCDLPDEGHGPEAVIGEVARHIEPYSTRIGHPRFLAWITTSPGPAGTIGDMLCTGLNQAPLSFKGGPAATVLEEIVLGWFAGMFGMPEGWGGTIVSGGTMANLMGLTVARRVHAPQVHARGMQGLERPLVLYVSDQGHMSVTRSAVLLGIGEDNVRAVPSDSACRMIPHELEKAVQQDRRAGRLPFCVVAQAGSVTTGAVDPLPDIAAICRRENMWMHVDAAYGGAVMLADELRPLLAGIELADSVCVDPHKWFFVPLECGITLFRSREQQLETFRAKAAYLGAENPHDLKNTTFILSRANRALKVWFAFRSYGRLRIARIIRRNMELARQLYRLMCDHPEWEPLAPAPLSIVCGRYTPSAAVRGGWTEQQIDDLQLQMIEELERSGTALLTPAAVNGRAGVRVCIANHRTTPEDITLIFNTLTAIGTRIARPDEHETAGE | not soluble
MGSDKIHHHHHHMTSALSEAGGYPPEGQGAYFLCDIFDAMPKNDLASMEHPLFSLSTRPDRRILNYEHNGAEITVTPSVKGLATIHDKDILIFCVSQLMAALNAGRQVSRVLHLTAHDLLVACNRETSGDAYRRLRESFERLAGTRITTNITTGGQEITTGFGLIESWEIVRKARGGRMVSVAVTLSDWLYRAVLSKSVLTLSRDYFRLRKPLERRIYELARKHCGRQDSWQISVETLLKKSGSASPRRVFRKMVRDMIESQPLPDYEMAELEGDIIRFSQKAAVVDVPPPVISEAARDEARRLMPGVDVHALEADWRATWARTGAPRLRKPDAAFVGWVRKRMND | not soluble
MGSDKIHHHHHHMTTDHPSAYCFFQDLAPRPPLDAAFDRDYLLYAIRGALRVSVAGESWLLPPSFAAWLPANTPISVDIDKPVTTCSVLARPGLCTGLPEKACVFQMSPMARQMIHYCKDWGPDAAHPAQAEGFFLALLHVCADLAVKSVDVKRPTATDPVLRKAIDITEAHLAQAITANEIARKVNLSERSMQRHFQMDVGMTWSQTLTQLRMIHAVALLAEGKLSIIQIAGYTGFQSLSAFNRAFRTFAATTPTKFRKALLD | not soluble
MGSDKIHHHHHHMTTDLEQQFEFLTEIERLREVERQNLLLDGSRVENSAEHSWHLALYALVFAPYAPSDVSITRVIEMLLLHDIVEIDVGDHPIDEPTDWEAVAQAEDRAQRRIFGLLPEAQGHRLQALWQEFEAAHTADARFAKSLDYCQPIFQTLCAVSPPADHLRVVRENLTTGRATSLRERFPEAYAAACSLIDGQTVSDPDFAARLAFLSEADRLKSVLRASRIASGTRYENSAEHSWHIMLYGWILAPHSLSEVDVSRVLKMLLLHDLVEIDAGDVPIHSNLDAAALRQIEETEKAAAERIFGLLPDAQAKDCLMIWQEFEAAQSADAVFAKSIDRVQPVLLNIATGGGSWVAYDVTLPQLETRVGVKIARGAPKVWDHVRALLLPWFTAQGRL | not soluble
MGSDKIHHHHHHMTTLALTGDSILQRRLLSTSDPVIKPLFDLIRGCDAAFTNLEVLPNDYRGDPAFDSGGSHFGAPSWVLDDLVEAGFGMFSTATNHTLDYSISGLEYGLDQLDKRGLCHAGAGRHLEEARRAAYLTTPNAAIGMVACGSTYTKGQEAARQTAAMQGRPGLNPLWPDSTYEVTAEQMAVVKEMAEGLGLEKFRQIRISTGFAFEAPEGIFPFNGMNFRVGEQTRHVRHPNPKDLAAIIRWVEEAKLASDIALVSIHAHEHADEKDQPADFIVEFAHAVIDAGADLVVGHGPHLLRGMEIYKGKPIFYSLGNFIGQNEMVRQLPGESYDRFHVDDRLTPTQLYKQRTLDDQKGFPSDERYWQTVVPICHFEGDGLVDVEIHPVSLGLGEQRHRRGRPRLAHGAEAESILNRFSSLSYEFGSTLEVGDTCANAVL | not soluble
MGSDKIHHHHHHMTTRVIALDLDGTLLTSKKTILPASLEALARAREAGYQVIVVTGRHHVAIHPFYQALALDTPAICCNGTYLYDYHAKKVLAADPMPVEQAVSLTAMLAKQQIHGLAYVDDAMLYEHPTGHVIRTRNWAQALPEDQRPVFAQVDSLAQAVREVNAVWKFALTDDDIPRLQRFAQQVGETLGLECEWSWHDQVDIARAGNSKGKRLAQWVADQGLSMQDVMAFGDNYNDLSMLEAAGTGVAMGNAVDEVKARANIVIGDNESTSIAEFIYRQLL | not soluble
MGSDKIHHHHHHMTTSSVRYPQRVRNELRFRELIVLRVERISAGFQRIVLGGEALDGFISLGFDDHTKVFFPEPGCRFTPPTVTEEGIIWGEGVRPVSRDYTPLYDEARRELALDFFIHDGGVASRWAMEAREGDTLTIGGPRGSLVVPEEYACQVYVCDESGMPALRRRLESLSRLPVRPAVTALVSIQDAAYRDYLAHLTDITVEYVVGGDEQAMQTRLSQLTIPESDYFIWITGEGKTVKRLSQCFEKGFDPHLVRAAAYWHRK | not soluble
MGSDKIHHHHHHMTVELLNEPLSRYPAFDTADPEELRQALSSVYGAKLVEGPIAADFHARSNFVQLDDIALAFGVGTGSIAVEFPEGECARLQIALSGQFTTRSGGTSTAINARQAGIISPGRNARTEYGQNYSFTLLRVSTSALERKLTTLLGCKPKASLEFEPAANNEAPQVVNLRRMLCFLANQLNCSPLPPVVLAELQEAITLLFLSAFRHNYSRQLERESHGIAPKHVRQVEEYIEANWMRPITIEKLTALTGISSRGIFKAFQRSRGYSPMAFAKRVRLQHAHNLLSDGATPTTVTAAALSCGFSNLGHFARDYRDMFGEKPSETLQRARP | not soluble
MGSDKIHHHHHHMTVVDDEKPAQAASGRFAAGEDPAKRDQILDGAKRAFMKHGFDAASMNDVTREAGVSKGTIYVYFQSKEDLFAALINNQKQKFAASMRDILAEETDLHMALRRYALAFTNYILTSEMIPAMRMLLAVQDRMPHLCQSFMRSGPENVRTVLEDYLEVQVKAGRLDIADTELAARQYIELATGAYFKKRLFGEIEVPPPQAEIDYIIDNALHIFLLAYDRKAENGPEAQRAN | not soluble
